The results in this text go back to article PMC10878280 (Journal of Virology, 2024).

The assay concerns the target neuraminidase (NA) of A/California/04/2009 (Influenza A virus A/California/04/2009 …, UniProt C3W5S3, strain). Kind of assay: fluorescence imaging with FRAP of labelled antibody on transfected cells. The following applies: one partner purified.

B1: CD6 IgG (antibody, V domains shown)
VH: QVKLQESGGGLVQPKGSLKLSCAASGFTFNTYAMNWVRQAPGKGLEWVARIRSKSNNYATFYADSVKDRFTISRDDSQSMLYLQMHNLKTDDTAMYYCVRPSIYYYASGYLDVWGAGTTVTVSS
VL: QIVLSQSPAILSASPGEKVTMTCRTSSSVSYMHWYQQKPGSSPKPWIYATSNLASGVPFRFSGSGSGTSYSLTISRVEAEDAATYYCQQWNSNPPTFGGGTKLEIK
notes: not shown: ybbR, C-terminal, kept; copies: 2 + 2
As to B1, the binding result is “binds”.
